Here are results for one protein from PMC2824011.

Substrate in this data set: O=c1ccc2nc3ccc(O[C@H]4O[C@H](CO)[C@@H](O)[C@H](O)[C@@H]4O)cc3oc-2c1
The experiment in a line: continuous fluorometric kinetic assay of purified enzyme. The class given is biochemical, Drosophila melanogaster.

B1: Golgi α-mannosidase II (dGMII) (Drosophila melanogaster) (protein)
chain: DDPIRPPLKVARSPRPGQCQDVVQDVPNVDVQMLELYDRMSFKDIDGGVWKQGWNIKYDPLKYNAHHKLKVFVVPHSHNDPGWIQTFEEYYQHDTKHILSNALRHLHDNPEMKFIWAEISYFARFYHDLGENKKLQMKSIVKNGQLEFVTGGWVMPDEANSHWRNVLLQLTEGQTWLKQFMNVTPTASWAIDPFGHSPTMPYILQKSGFKNMLIQRTHYSVKKELAQQRQLEFLWRQIWDNKGDTALFTHMMPFYSYDIPHTCGPDPKVCCQFDFKRMGSFGLSCPWKVPPRTISDQNVAARSDLLVDQWKKKAELYRTNVLLIPLGDDFRFKQNTEWDVQRVNYERLFEHINSQAHFNVQAQFGTLQEYFDAVHQAERAGQAEFPTLSGDFFTYADRSDNYWSGYYTSRPYHKRMDRVLMHYVRAAEMLSAWHSWDGMARIEERLEQARRELSLFQHHDGITGTAKTHVVVDYEQRMQEALKACQMVMQQSVYRLLTKPSIYSPDFSFSYFTLDDSRWPGSGVEDSRTTIILGEDILPSKHVVMHNTLPHWREQLVDFYVSSPFVSVTDLANNPVEAQVSPVWSWHHDTLTKTIHPQGSTTKYRIIFKARVPPMGLATYVLTISDSKPEHTSYASNLLLRKNPTSLPLGQYPEDVKFGDPREISLRVGNGPTLAFSEQGLLKSIQLTQDSPHVPVHFKFLKYGVRSHGDRSGAYLFLPNGPASPVELGQPVVLVTKGKLESSVSVGLPSVVHQTIMRGGAPEIRNLVDIGSLDNTEIVMRLETHIDSGDIFYTDLNGLQFIKRRRLDKLPLQANYYPIPSGMFIEDANTRLTLLTGQPLGGSSLASGELEIMQDRRLASDDERGLGQGVLDNKPVLHIYRLVLEKVNNCVRPSELHPAGYLTSAAHKASQSLLDPLDKFIFAENEWIGAQGQFGGDHPSAREDLDVSVMRRLTKSSAKTQRVGYVLHRTNLMQCGTPEEHTQKLDVCHLLPNVARCERTTLTFLQNLEHLDGMVAPEVCPMETAAYVSSHSS
As for B1, the Km is reported as 200 (±73) μM.
